Test results reported in US20230192878A1, “METHODS, THERAPIES AND USES FOR TREATING CANCER” (PFIZER INC., priority 2020, published 2023).

Assays:
MM.1S-PD-L1 = assay: Subcutaneous MM.1S-PD-L1 multiple myeloma mouse model; assay type: in vivo; conditions: alone or +anti-PD-1 5 mg/kg, dosing from Day 21
Procedure: MM.1S multiple myeloma cells were engineered to express PD-L1 and are referred to as MM.1S-PD-L1. Pre-activated and expanded T cells (20×10^6) were administered on Day 19 after MM.1S-PDL1 tumor cell inoculation subcutaneously (SC). BCMAxCD3 bispecific (0.3 or 1 mg/kg) or negative bispecific (1 mg/kg) was administered IV on Day 21 and dosed Q7Dx3. Anti-PD-1 mAb was administered at 5 mg/kg intraperitoneally (IP) twice a week starting on Day 21. Tumor measurements were recorded 2 to 3 times a week using digital calipers. N (at study start) is 5-12 animals per group.

OPM2-luc = assay: BCMAxCD3 bispecific mediated cell killing with human T cells, with or without GSI; assay type: cell-based; conditions: 60 hours, with or without 1 μM GSI
Procedure: (§1) CD3^+ T cells from PBMCs (Stem Cell Technologies) were negatively selected using EasySep Human T cell enrichment kit (Stem Cell Technologies). Multiple myeloma cells expressing luciferase (MM.1S-luc, OPM2-luc, H929-luc, Molp8-luc, RPM18226-luc) were treated with 1 μM GSI […]. After 24 hours, cells were seeded with 50,000 CD3^+ pan T cells in a clear 96-well V-bottom plate. Cells were further treated with a range of BCMAxCD3 bispecific antibody concentrations with or without 1 μM GSI. 60 hours after treatment, luciferase activity in treated cells was analyzed using NeoLite reagent kit (Perkin Elmer) and acquired on VictorX multimode plate reader (Perkin Elmer). Cell viability was calculated by dividing luciferase activity of treated cells over luciferase activity of untreated control (no BCMAxCD3 bispecific antibody added).

MM.1S-luc = assay: as above; assay type: cell-based; conditions: 60 hours, with or without 1 μM GSI
Procedure: as §1

RPMI8226 = assay: as above; assay type: cell-based; conditions: 60 hours, with or without 1 μM GSI
Procedure: as §1

**Q.** “PF-06863135: heterodimeric humanized full-length bispecific antibody with one BCMA binding arm and one CD3 binding arm” was tested. Which “Tumor Volume ± SEM” value (MM.1S-PD-L1; day 14 post tumor cell inoculation, BCMA × CD3 bispecific 0.3 mg/kg) did it give?
**A.** 34.4 ± 9.5 mm^3

**Q.** What about the “Tumor Volume ± SEM” value (MM.1S-PD-L1; day 14 post tumor cell inoculation, BCMA × CD3 bispecific 1 mg/kg) of the same substance?
**A.** 26.4 ± 7.5 mm^3

**Q.** What about the “Tumor Volume ± SEM” value (MM.1S-PD-L1; day 18 post tumor cell inoculation, BCMA × CD3 bispecific 0.3 mg/kg) of the same substance?
**A.** 91.6 ± 18 mm^3

**Q.** What about the “Tumor Volume ± SEM” value (MM.1S-PD-L1; day 18 post tumor cell inoculation, BCMA × CD3 bispecific 1 mg/kg) of the same substance?
**A.** 92 ± 17.1 mm^3

**Q.** What about the “Tumor Volume ± SEM” value (MM.1S-PD-L1; day 20 post tumor cell inoculation, BCMA × CD3 bispecific 0.3 mg/kg) of the same substance?
**A.** 122.5 ± 20.7 mm^3

**Q.** And the “Tumor Volume ± SEM” value (MM.1S-PD-L1; day 20 post tumor cell inoculation, BCMA × CD3 bispecific 1 mg/kg)?
**A.** 130.7 ± 24.6 mm^3

**Q.** And the “Tumor Volume ± SEM” value (MM.1S-PD-L1; day 25 post tumor cell inoculation, BCMA × CD3 bispecific 0.3 mg/kg)?
**A.** 403 ± 59 mm^3

**Q.** And the “Tumor Volume ± SEM” value (MM.1S-PD-L1; day 25 post tumor cell inoculation, BCMA × CD3 bispecific 1 mg/kg)?
**A.** 601.1 ± 70^ mm^3

**Q.** And the “Tumor Volume ± SEM” value (MM.1S-PD-L1; day 28 post tumor cell inoculation, BCMA × CD3 bispecific 0.3 mg/kg)?
**A.** 403.3 ± 67.6 mm^3

**Q.** What about the “Tumor Volume ± SEM” value (MM.1S-PD-L1; day 28 post tumor cell inoculation, BCMA × CD3 bispecific 1 mg/kg) of the same substance?
**A.** 482.9 ± 32.6 mm^3

**Q.** What about the “Tumor Volume ± SEM” value (MM.1S-PD-L1; day 32 post tumor cell inoculation, BCMA × CD3 bispecific 0.3 mg/kg) of the same substance?
**A.** 603.6 ± 151.6 mm^3

**Q.** What about the “Tumor Volume ± SEM” value (MM.1S-PD-L1; day 32 post tumor cell inoculation, BCMA × CD3 bispecific 1 mg/kg) of the same substance?
**A.** 410.5 ± 82.7 mm^3

**Q.** And the “Tumor Volume ± SEM” value (MM.1S-PD-L1; day 35 post tumor cell inoculation, BCMA × CD3 bispecific 0.3 mg/kg)?
**A.** 835.1 ± 77.2 mm^3

**Q.** And the “Tumor Volume ± SEM” value (MM.1S-PD-L1; day 35 post tumor cell inoculation, BCMA × CD3 bispecific 1 mg/kg)?
**A.** 627.9 ± 111.8 mm^3

**Q.** And the “Tumor Volume ± SEM” value (MM.1S-PD-L1; day 39 post tumor cell inoculation, BCMA × CD3 bispecific 0.3 mg/kg)?
**A.** 1569.3 ± 151.8 mm^3

**Q.** What about the “Tumor Volume ± SEM” value (MM.1S-PD-L1; day 39 post tumor cell inoculation, BCMA × CD3 bispecific 1 mg/kg) of the same substance?
**A.** 1436.8 ± 276.4 mm^3

**Q.** And the “OPM2 cell viability (% control)” value (OPM2-luc; BCMAxCD3 0.00064 nM)?
**A.** 83.8 ± 3.4 % control

**Q.** What about the “OPM2 cell viability (% control)” value (OPM2-luc; BCMAxCD3 0.0032 nM) of the same substance?
**A.** 84.3 ± 3.1 % control

**Q.** And the “OPM2 cell viability (% control)” value (OPM2-luc; BCMAxCD3 0.016 nM)?
**A.** 68.4 ± 2.4 % control

**Q.** And the “OPM2 cell viability (% control)” value (OPM2-luc; BCMAxCD3 0.08 nM)?
**A.** 43.6 ± 6.4 % control

**Q.** And the “OPM2 cell viability (% control)” value (OPM2-luc; BCMAxCD3 0.4 nM)?
**A.** 3.1 ± 0.8 % control

**Q.** And the “OPM2 cell viability (% control)” value (OPM2-luc; BCMAxCD3 2 nM)?
**A.** 2.8 ± 0.8 % control

**Q.** And the “OPM2 cell viability (% control)” value (OPM2-luc; BCMAxCD3 10 nM)?
**A.** 2 ± 0.2 % control

**Q.** And the “OPM2 cell viability (% control)” value (OPM2-luc; BCMAxCD3 50 nM)?
**A.** 3.3 ± 0.3 % control

**Q.** And the “MM.1S cell viability (% control)” value (MM.1S-luc; BCMA × CD3 0.00001 nM)?
**A.** 80.6 ± 3.9 % control

**Q.** What about the “MM.1S cell viability (% control)” value (MM.1S-luc; BCMA × CD3 0.00005 nM) of the same substance?
**A.** 79.8 ± 2.9 % control

**Q.** And the “MM.1S cell viability (% control)” value (MM.1S-luc; BCMA × CD3 0.00026 nM)?
**A.** 78 ± 0.9 % control

**Q.** What about the “MM.1S cell viability (% control)” value (MM.1S-luc; BCMA × CD3 0.00128 nM) of the same substance?
**A.** 87.7 ± 4.4 % control

**Q.** And the “MM.1S cell viability (% control)” value (MM.1S-luc; BCMA × CD3 0.0064 nM)?
**A.** 108 ± 4.5 % control

**Q.** And the “MM.1S cell viability (% control)” value (MM.1S-luc; BCMA × CD3 0.032 nM)?
**A.** 2.5 ± 0.3 % control

**Q.** And the “MM.1S cell viability (% control)” value (MM.1S-luc; BCMA × CD3 0.16 nM)?
**A.** 1.7 ± 0.8 % control

**Q.** What about the “MM.1S cell viability (% control)” value (MM.1S-luc; BCMA × CD3 0.8 nM) of the same substance?
**A.** 2.4 ± 0.5 % control

**Q.** And the “MM.1S cell viability (% control)” value (MM.1S-luc; BCMA × CD3 4 nM)?
**A.** 1.3 ± 0.8 % control

**Q.** And the “RPMI8226 cell viability (% control)” value (RPMI8226; BCMAxCD3 0.00064 nM)?
**A.** 113.2 ± 10.6 % control

**Q.** What about the “RPMI8226 cell viability (% control)” value (RPMI8226; BCMAxCD3 0.0032 nM) of the same substance?
**A.** 130.5 ± 19.5 % control

**Q.** And the “RPMI8226 cell viability (% control)” value (RPMI8226; BCMAxCD3 0.016 nM)?
**A.** 113.4 ± 1.3 % control

**Q.** And the “RPMI8226 cell viability (% control)” value (RPMI8226; BCMAxCD3 0.08 nM)?
**A.** 54.2 ± 16.9 % control

**Q.** What about the “RPMI8226 cell viability (% control)” value (RPMI8226; BCMAxCD3 0.4 nM) of the same substance?
**A.** 28.7 ± 13.6 % control

**Q.** And the “RPMI8226 cell viability (% control)” value (RPMI8226; BCMAxCD3 2 nM)?
**A.** 25.7 ± 5.5 % control

**Q.** What about the “RPMI8226 cell viability (% control)” value (RPMI8226; BCMAxCD3 10 nM) of the same substance?
**A.** 19.9 ± 1.1 % control

**Q.** What about the “RPMI8226 cell viability (% control)” value (RPMI8226; BCMAxCD3 50 nM) of the same substance?
**A.** 19.4 ± 5 % control
